Experimental data published in patent publication US20220265819A1 (GEN2 NEUROSCIENCE, published 2022).
Where no end group is shown, it is not given here.

T1: antigen peptide [C]-SPVVSGDTSPRHLSN-amide (tau 396-410 with N-terminal cysteine) (human)
T1 construct: Not phosphorylated; Coated free, or conjugated through the N-terminal Cys to BSA or transferrin (phage ELISA); The N-terminal Cys is not part of tau; also called target peptide; short linear peptide
T1 peptide: CSPVVSGDTSPRHLSN-NH2


Columns and labels:
Bovine serum albumin [1] = target: T2, Bovine serum albumin (bovine, UniProt P02769 25-607); assay: phage ELISA
T2 construct: Negative control antigen in ELISA; also called BSA
Procedure: (§1) 10.1 Phage ELISA: Supernatants prepared from bacterial cultures infected with phage displaying scFv were tested for binding to full length recombinant 2N4R tau (100 ng/well), target peptide (SEQ ID NO: 13) conjugated to BSA or transferrin (1 μg/well) or BSA (1% in TBS) using standard methods. Antigen was coated onto ELISA plates, then removed, and plates were blocked for 1 h with 5% dried milk in TBS. Samples were diluted 1:25 in 1% BSA/TBS then added to the ELISA plate for 1 h at room temperature (RT). Plates were then washed ×4 with TBS/0.1% Tween (TBST). Alpha-M13-HRP antibody (Abcam, Cambridge, UK) was added (1:5000 dilution in 5% milk/TBS) and incubated for 1 h at RT before washing ×4. TMB ELISA solution was added to each well for 10 min at RT, followed by 1 M sulphuric acid. OD was then measured at 450 nm.

[2] = target: T3, full length recombinant human 2N4R tau (amino acids 1-441) (human, UniProt P10636 1-758); assay: ELISA, purified IgG on coated tau, half maximal signal
T3 construct: Bought (rPeptide); recombinant, non-phosphorylated; also called recombinant tau
Procedure: (§2) 13.1 ELISA analyses: ELISA plates were coated with antigen (full length tau, 100 ng/well; or 1% BSA in 1×TBS) in 1× carbonate-bicarbonate buffer for 1 hour at 37° C. Antigen was removed from wells and the plates were then blocked for 1 hour at RT with 5% dried milk in 1×TBS (200 μl/well). Blocking solution was removed, diluted IgG (10 μg/mL, to 0.0001 μg/mL in 1% BSA/1×TBS) was added to relevant wells, and plates were incubated for 1 hour at RT with gentle shaking. Plates were then washed four times with TBS/0.1% Tween (TBST). Anti-rabbit IgG-HRP antibody (Sigma, St Louis, Mo., USA), diluted 1:5000 in 5% milk/TBS, was added to each well and plates were incubated for 1 hour at RT with gentle shaking before being washed four times with TBST. 25 μL 3,3′,5,5′-tetramethylbenzidine (TMB) ELISA solution was added to each well and plates were incubated for 15 mins at RT, an equal volume of 1 M sulfuric acid was added to each well and OD was measured at 450 nm.
Data were plotted as log concentration of IgG against ELISA signal (OD) and EC₅₀ values were calculated using a four parameter logistic equation with variable slope using GraphPad Prism (GraphPad Software Inc, La Jolla, Calif., USA).

Bovine serum albumin [3] = target: T2, Bovine serum albumin; assay: ELISA on 1% BSA, HEK293F supernatant, anti-rabbit IgG-HRP, n=1
Procedure: FIG. 9. A panel of anti-tau IgG bind to linear immunogen peptide and full length recombinant 2N4R tau in ELISA format. […] Binding of anti-tau IgG was detected using an HRP-conjugated anti-rabbit secondary antibody and data shown are from a representative experiment (n=1).
as §2, with “Antigen” for “13.1 ELISA analyses: ELISA plates were coated with antigen (full length tau, 100 ng/well; or 1% BSA in 1×TBS) in 1× carbonate-bicarbonate buffer for 1 hour at 37° C. Antigen”, “1×TBS.” for “1×TBS (200 μl/well).”, “removed. HEK293F cell supernatant” for “removed, diluted IgG”, “(Sigma.” for “(Sigma,”, “TBST.” for “TBST. 25 μL”, “RT. An” for “RT, an”

[4] = target: T3, full length recombinant human 2N4R tau …; assay: ELISA, HEK293F supernatant on coated tau
Procedure: as §2, with “Antigen” for “13.1 ELISA analyses: ELISA plates were coated with antigen (full length tau, 100 ng/well; or 1% BSA in 1×TBS) in 1× carbonate-bicarbonate buffer for 1 hour at 37° C. Antigen”, “1×TBS.” for “1×TBS (200 μl/well).”, “removed. HEK293F cell supernatant” for “removed, diluted IgG”, “(Sigma.” for “(Sigma,”, “TBST.” for “TBST. 25 μL”, “RT. An” for “RT, an”

[5] = target: T3, full length recombinant human 2N4R tau …; assay: phage ELISA, tau 100 ng/well, phage supernatant 1:25, anti-M13-HRP, n=1
Text: (§3) FIG. 7. A panel of phage display-derived anti-tau scFv bind to linear immunogen peptide and full length 2N4R tau in phage ELISA. Phage expressing scFv clones bind to the short linear peptide (SEQ ID NO: 13) (A) conjugated to BSA (black bars) or transferrin (white bars) and to full length recombinant 2N4R tau (B). […] Binding of phage was detected using an HRP-conjugated anti-alpha-M13 antibody and data shown are from a representative experiment (n=1).
as §1

[6] = target: T1, antigen peptide …; assay: phage ELISA, phage supernatant 1:25, anti-M13-HRP, n=1
Text: as §3, §1

T2 sequence (P02769 25-607 limits assumed): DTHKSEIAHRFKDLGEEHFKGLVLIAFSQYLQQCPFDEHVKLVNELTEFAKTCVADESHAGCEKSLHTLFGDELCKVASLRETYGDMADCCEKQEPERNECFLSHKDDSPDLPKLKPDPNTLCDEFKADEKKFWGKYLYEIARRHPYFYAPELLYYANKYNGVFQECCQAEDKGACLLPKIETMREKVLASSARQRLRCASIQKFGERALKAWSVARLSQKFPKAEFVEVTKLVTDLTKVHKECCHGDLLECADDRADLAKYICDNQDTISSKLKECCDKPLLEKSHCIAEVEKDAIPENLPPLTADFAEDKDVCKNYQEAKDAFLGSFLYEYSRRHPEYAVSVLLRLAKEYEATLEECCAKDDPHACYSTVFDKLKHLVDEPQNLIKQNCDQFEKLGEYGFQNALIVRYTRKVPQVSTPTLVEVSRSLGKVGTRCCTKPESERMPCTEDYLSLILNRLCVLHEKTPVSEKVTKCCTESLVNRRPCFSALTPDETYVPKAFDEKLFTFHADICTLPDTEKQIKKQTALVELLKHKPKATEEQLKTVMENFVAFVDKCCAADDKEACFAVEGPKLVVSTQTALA
T3 sequence (P10636 other isoform, or with tags, fused parts or gaps limits assumed): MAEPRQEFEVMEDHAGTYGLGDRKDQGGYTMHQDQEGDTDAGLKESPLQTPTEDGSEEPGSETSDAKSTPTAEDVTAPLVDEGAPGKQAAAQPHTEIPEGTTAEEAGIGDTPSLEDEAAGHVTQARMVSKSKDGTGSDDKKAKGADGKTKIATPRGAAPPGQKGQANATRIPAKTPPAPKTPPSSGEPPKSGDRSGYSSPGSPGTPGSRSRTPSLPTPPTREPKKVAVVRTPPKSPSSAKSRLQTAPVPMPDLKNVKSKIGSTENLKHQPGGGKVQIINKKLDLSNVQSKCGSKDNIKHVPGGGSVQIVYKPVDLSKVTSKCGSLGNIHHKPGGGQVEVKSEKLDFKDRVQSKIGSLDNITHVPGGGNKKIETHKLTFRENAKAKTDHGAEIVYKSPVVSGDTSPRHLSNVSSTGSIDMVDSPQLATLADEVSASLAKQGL

Binder	binding result (Bovine serum albumin [1])	EC50 [2] [nM]	binding result (Bovine serum albumin [3])	OD (ELISA) [4] [OD]	binding result [5]	binding result [6]
Clone 13 human scFv (phage displayed) (scFv, V domains shown, also called rx9; D12) VH: ESGGGVVKPGGSLRLACEASGFTFNKYAMSWVRQAPGKGLEWVSGNSGSGNSTYYADSVKGRFTISRDNSKNILYLDMNNLRAEDTALYYCAKTRGAGRRKPYGMDVWGHGTTVTVSS VL: VMTQSPSTLSLSPGERATLSCRASQSVANNYLAWYQHKPGQAPRVLIYGASSRATGIPDRFSGSGSGTDFTLTISRLEPEDFAVYYCQQYGSSPRTFGGGTKLEIK	no binding (tested: 1:25 phage supernatant)					
Clone 1 rabbit monoclonal IgG (antibody, V domains shown, Rabbit IgG expressed in HEK293F (pRab293); also called P1-D4; #28) VH: QSLEESGGGLVKPGGTLTLTCTVSGFSLNNYDMSWVRQAPGKGLEWIGTVSTTYRRYYASWAKGRFTISKTSSTTVDLKMTSLTTEDTATYFCAASGIWGPGTLVTVSL VL: AQVLTQTTSPVSAAVGGTVTINCQSSQRVYSNYLAWYQQKPGQPPKRLIFLASTLESGVPSRFSGSGSGTQFTLTISDLECDDAATYYCAGTYTGSIWAFGGGTEVVVKG		0.73	no binding (tested: supernatant 1:50)	0.3		
Clone 11 human scFv (phage displayed) (scFv, V domains shown, also called rx7; C6) VH: QVQLQQWGGGLVKPSETLSLTCGVSGGSFNDYYWTWIRQPQGKGLEWIGEINHVGSSRYNPSLGSRVTMSVDTSKSQFSLTLTAVTAADTAIYYCTRGRKTRRVKFFSRYSRDWFDPWGQGSRVTVSS VL: VMTQSPATLSVSPGERATLSCRASQSVSSNLAWYQQKPGQAPRLLIYGASSRATGIPDRFSGSGSGTDFTLTISRLEPEDFATYYCQQLNSYPFTFGPGTKVDIK	no binding (tested: 1:25 phage supernatant)				binds	binds
Clone 12 human scFv (phage displayed) (scFv, V domains shown, also called rx8; H11) VH: QVQLQQWGGGLVKPSETLSLTCGVSGGSFNDYYWTWIRQPQGKGLEWIGEINHVGSSRYNPSLGSRVTMSVDTSKSQFSLTLTAVTAADTAIYYCTRGRKTRRVKFFSRYSRDWFDPWGQGSRVTVSS VL: MTQSPSSLSASVGDRVTITCRASQGISNYLAWYQQKPGKVPKLLIYAASTLQSGVPSRFSGSGSGTDFTLTISSLQPEDVATYYCQKYNSAPFTFGPGTKVDIK	no binding (tested: 1:25 phage supernatant)				binds	binds
Clone 9 human scFv (phage displayed) (scFv, V domains shown, also called rx2; E5) VH: VQLVESGGGFVQPGGSLRLSCAASGFTFTDYGIHWVRQAPGKGLEWVAVISHDGSHKYYSDSVKGRSTISRDSSDNTVSLQLDGLRADDTALYYCAKDLPQTGALDFWGRGTLITVSS VL: MTQSPSSLSASVGDRVTITCQASQDISNYLNWYQQKPGKAPKLLIYDASNLETGVPSRFSGSGSGTDFTFTISSLQPEDFATYYCQQANSFPITFGQGTRLEIK	no binding (tested: 1:25 phage supernatant)				binds	binds
